From US20120022228A1, “PURIFICATION OF AMPHOTERIC PRODUCTS, OR OF PRODUCTS LIABLE TO BE CONVERTED INTO AMPHOTERIC PRODUCTS” (CENTRE NATIONAL DE LA RECHERCHE SCIENTIFIQUE, priority 2010, published 2012) come the findings set out here.

Peptide text beside a SMILES is read from it.

Type in all cases: physicochemical
Data set [1] is described as follows: Partition of dipeptides between organic and aqueous phase as a function of percentage of deprotonation of the exchanger (FIG. 4). The settings on record: exchanger DEHPA deprotonated to 30%. An excerpt: FIG. 4 is a graphic representing the solubility of dipeptides in either an organic or an aqueous phase in function of the percentage of deprotonation of an exchanger dissolved in […]. In abscissae, the percentage of deprotonation of the exchanger is represented; said abscissae are graduated from 0 to 30%. The ordinates represent a partition coefficient between the organic phase and the aqueous phase, said ordinates being graduated from 0 to 1.
The Influence of the percentage of deprotonated exchanger over the CPC purification of dipeptides GG, GY and LV is determined. […]

A short description of data set [2]: CPC run in elution mode, stability of SF328 in the solvent system. The settings on record: MtBE/CH3CN/BuOH/Water 1% TFA (2:1:2:5, v/v), Example 54. Here is the method:
Only the system MtBE/CH3CN/BuOH/Water 1% TFA (2:1:2:5, v/v) was tested. The experimental conditions were: • Rotation speed: 1300 rpm. • Sample injected: 100 mg. • Elution mode: ascending. • Flow rate: 8 ml/min.
This system causes the degradation of SF328.

The nature of data set [3]: Partition coefficient of SF328 evaluated by TLC in different biphasic solvent systems. How it is done:
Partition coefficient of SF328 was evaluated by TLC in different biphasic solvent systems. In the elution mode, it is required that the KD value of the compound of interest lies between 0.2 and 5 (preferentially about 1).

For `CC(C)C[C@H](N)C(=O)N[C@H](C(=O)O)C(C)C` [LV, LeucylValine] (H-Leu-Val-OH), the “peptide extraction (partition organic/aqueous phase)” value in data set [1] is recorded as “improvement”.

With “H-Asp-Glu-Asn-Pro-Val-Val-His-Phe-Phe-Lys-Asn-Ile-Val-Thr-Pro-Arg-Thr-OH (H-DENPVVHFFKNIVTPRT-OH) [SF328]”, the “Stability in the solvent system” value in data set [2] was “degradation”. Besides, the “Evaluation KD” value was “average” in data set [3] (BuOH/Acetic acid/Water (4:1:5, v/v)); “poor” in data set [3] (BuOH/Acetic acid/Water (5:1:4, v/v)); “good” in data set [3] (MtBE/CH3CN/BuOH/Water 1% TFA (2:1:2:5, v/v)); “poor” in data set [3] (MtBE/CH3CN/Water (2:2:3, v/v)); “average” in data set [3] (MtBE/CH3CN/Water (3:2:5, v/v)).
